B1: SMG5 (parent)
chain: FVSIAQSEQESLLQQAQAQFRMAQ
B2: TRIM39 (parent)
chain: ERDFPCPVCRKTSRYRSLRPNRQL

Variants of: B1
Assay: protein stability index of a GFP-peptide fusion (GPS, HEK-293T) (PSI 1-6); higher = more stable
Details: c terminus: a fixed tail appended
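Further: lentivirally expressed fusions sorted by FACS into six bins by GFP to DsRed ratio, PSI derived from sequencing read proportions per bin multiplied by bin number.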

Variant | protein stability index
Q24M | 1.88
Q24K | 2.65
Q24T | 2.08
Q24I | 2.11
Q24W | 2.76
Q24A | 2.15
Q24F | 2.48
Q24V | 1.63
Q24L | 2.4
Q24H | 1.92
Q24D | 2.12
Q24P | 2.38
Q24S | 2.65
Q24N | 2.24
Q24G | 1.71
Q24C | 1.94
Q24Y | 2.1
Q24R | 2.57
Q24E | 2.74

Variant | protein stability index
A23E | 2.85
A23M | 2.17
A23K | 2.12
A23Y | 2.16
A23F | 1.75
A23N | 2.12
A23G | 2.46
A23S | 2.31
A23D | 2.21
A23H | 2.85
A23P | 1.91
A23L | 2.4
A23T | 2.33
A23R | 2.26
A23Q | 2.29
A23W | 2.58
A23V | 2.02
A23I | 2.22

Variants of: B2
Assay: as above
Details: c terminus: a fixed tail appended

Variant | protein stability index
R16E | 2.54
R16M | 1.03
R16H | 2.29
R16L | 1.53
R16C | 2.47
R16A | 1.43
R16K | 2.14
R16G | 1.29
R16S | 2.86
R16V | 2.04
R16Y | 1.74
R16P | 2.1
R16N | 2.23
R16Q | 1.91
R16F | 2.57
R16I | 1.24
Y15G | 1.83
Y15C | 2.24
Y15N | 2.31
Y15R | 2.65
Y15F | 2.31
Y15T | 1.9
Y15I | 2.24
Y15E | 2.19
Y15H | 2.68

Variant | protein stability index
Y15M | 1.54
Y15P | 2.29
Y15Q | 2.52
Y15V | 1.64
Y15W | 1.95
Y15K | 3.33
Y15D | 3.02
S17N | 2.22
S17Y | 1.44
S17Q | 1.86
S17L | 1.69
S17T | 1.45
S17P | 2.71
S17R | 2.31
S17E | 2.13
S17G | 2.15
S17W | 2.31
S17H | 1.89
S17K | 2.25
S17C | 1.71
S17D | 1.85
S17V | 2.24
S13F | 2.46
S13K | 1.77
S13V | 2.1

Variant | protein stability index
S13P | 2.74
S13A | 2.01
S13D | 2.56
S13E | 2.21
S13Q | 2.1
S13H | 2.82
S13G | 2.52
S13N | 2.12
S13R | 2.49
S13L | 2.4
S13C | 2.82
S13I | 2.4
S13W | 2.39
S13M | 2.61
V8N | 2.43
V8R | 3.23
V8E | 1.72
V8Y | 1.95
V8L | 1.96
V8K | 2.68
V8H | 2.34
V8C | 2.66
V8I | 2.38
V8T | 3.06
V8A | 2.89

Variant | protein stability index
V8G | 2.75
V8F | 1.41
V8P | 3.91
V8D | 2.2
V8M | 2.31
V8Q | 2.35
V8S | 3.84
F4M | 2.48
F4H | 3.14
F4Y | 2.84
F4V | 2.39
F4S | 1.81
F4P | 2.41
F4N | 2.89
F4Q | 2.13
F4L | 2.1
F4D | 2.93
F4C | 2.12
F4G | 2.3
F4E | 2.02
F4R | 2.09
F4I | 2.35
F4T | 1.82
F4K | 2.86
E1D | 2.4

Variant | protein stability index
E1H | 2.03
E1Y | 1.66
E1I | 2.19
E1A | 2.16
E1P | 2.93
E1T | 2.71
E1Q | 2.06
E1C | 2.2
E1S | 2.25
E1R | 2.71
E1G | 1.83
E1W | 2.4
E1F | 2.14
E1N | 2.01
E1L | 2.34
E1V | 2.06
E1M | 2.16
E1K | 1.77
K11W | 2.84
K11A | 2.45
K11G | 1.75
K11N | 3.36
K11D | 1.7
K11S | 2.25
K11Q | 2.4

Variant | protein stability index
K11F | 1.88
K11I | 1.21
K11H | 3.77
K11E | 1.17
K11Y | 1.8
K11C | 2.55
K11M | 1.65
K11P | 2.54
K11R | 1.85
K11V | 1.63
D3F | 2.93
D3S | 2.64
D3W | 2.15
D3M | 2.56
D3A | 2.2
D3N | 2.5
D3L | 1.96
D3V | 2.48
D3H | 1.78
D3Y | 1.42
D3R | 1.99
D3E | 1.64
D3T | 1.84
D3P | 2.06
D3I | 1.39

Variant | protein stability index
D3Q | 2.62
D3K | 2.64
D3G | 1.6
D3C | 2.08
R10Y | 2.03
R10M | 2.88
R10Q | 2.08
R10L | 2.45
R10A | 1.88
R10S | 1.15
R10V | 2.04
R10G | 4.1
R10C | 3.16
R10P | 3.13
R10T | 2.16
R10H | 2.53
R10N | 2.22
R10K | 2.14
R10E | 1.91
R10F | 1.74
R10D | 2.89
R10I | 2.6
P5Y | 2
P5I | 2.91
P5H | 3.7

Variant | protein stability index
P5S | 2.04
P5V | 2.29
P5K | 2.72
P5Q | 1.18
P5G | 1.67
P5A | 1.74
P5D | 2.49
P5C | 2.9
P5W | 1.87
P5T | 2.93
P5L | 3
P5M | 2.26
P5F | 1.81
P5E | 1.76
P5N | 1.84
C6H | 3.61
C6D | 3.74
C6F | 2.03
C6V | 3.23
C6Q | 3.24
C6Y | 3.21
C6K | 3.13
C6A | 2.69
C6G | 3.97
C6W | 2.01

Variant | protein stability index
C6I | 3.24
C6T | 3.02
C6S | 3.17
C6L | 3.19
C6M | 3.1
T12A | 2.64
T12L | 2.13
T12K | 2.64
T12P | 1.55
T12I | 1.71
T12C | 2
T12H | 1.55
T12V | 2.02
T12G | 2.05
T12M | 2.36
T12Q | 1.6
T12W | 2.44
T12F | 2.88
T12Y | 1.7
T12D | 1.37
T12S | 2.17
R2K | 2.02
R2L | 1.63
R2M | 2.28
R2Y | 2.22

Variant | protein stability index
R2C | 2.01
R2F | 1.83
R2D | 2.1
R2E | 2.06
R2N | 1.86
R2P | 1.78
R2S | 1.9
R2V | 3.06
R2A | 2.13
R2W | 2.18
R2G | 1.57
R2I | 2.06
R2Q | 2.27
R2H | 2.33
R2T | 1.91
C9Q | 3.81
C9Y | 3.62
C9M | 3.41
C9T | 3.77
C9P | 2.92
C9V | 3.26
C9A | 3.79
C9H | 2.56
C9D | 4.01
C9N | 2.78

Variant | protein stability index
C9G | 3.91
C9I | 3.29
C9K | 3.42
C9F | 2.45
C9S | 3.77
L18E | 2.1
L18H | 2.68
L18D | 2.71
L18A | 2.32
L18G | 2.34
L18F | 2.39
L18C | 2.24
P7Q | 1.96
P7T | 1.85
P7I | 2.75
P7R | 2.88
P7G | 2.38
P7K | 2.6
P7S | 2.22
P7L | 2.37
P7Y | 2.09
P7C | 1.94
P7F | 1.8
P7A | 2.2
P7W | 1.96

Variant | protein stability index
P7N | 2.19
P7M | 2.17
P7D | 2.43
P7H | 3.7
R14F | 1.96
R14N | 1.67
R14Q | 2
R14E | 3.71
R14H | 2.15
R14Y | 2.42
R14C | 2.85
R14P | 1.82
R14V | 1.39
R14I | 2.28
R14A | 2.46
R14M | 1.92
R14G | 2.13
R14D | 2.08
R14S | 1.66
R14L | 2.09
R14K | 1.9
R14T | 1.58

— the supplement of paper PMC10567573
